Experimental data published in the supplement of paper PMC9170038.

System: K4 kissing-loop RNA reporter
Assay: apparent KD of K4 kissing-loop reporter; higher = weaker reporter binding
Conditions: Eterna round: R107
Procedure: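 RNA-MaP round R107: designed RNA switches with theophylline, tryptophan, arginine or FMN aptamers are transcribed on-chip within common flanks. They are titrated with a labelled K4 kissing-loop RNA reporter in RNA-MaP buffer (100 mM Tris pH 7.5, 80 mM KCl, 4 mM MgCl2), without ligand or with the indicated ligand. Median apparent KD per design.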

[1] = input ligand: theophylline 20 uM
[2] = input ligand: tryptophan 2.4 mM
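Further: bound reporter read as fluorescence of individual clusters on recovered sequencing chips by microscopy, with normalized cluster intensities fitted with a binding model.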

UCGAUGGUCAGCGAUACCAGCCCAGUGAUGUUGGGCACAUGGUUGCGGAAAAUCCCAUUGGGCCCUUGGCAGCGCUUGCAUGGGU [Titiquesan]
apparent KD of K4 kissing-loop reporter (input ligand: FMN 200 uM): 130 nM
apparent KD of K4 kissing-loop reporter (input ligand: arginine 13.2 mM): 122 nM
apparent KD of K4 kissing-loop reporter (input ligand: none): 123 nM
apparent KD of K4 kissing-loop reporter [1]: 136 nM
apparent KD of K4 kissing-loop reporter [2]: 116 nM

UCGCACCUGUGGGCGAGGCCUAUAAUUGUCAAGGAUAUAGAUCAUUCUAGAAGGUGACACUUCGCGAGUGAUGUUCGGGAAAUGC [theeternabot_sameState_KL_FMN_A_8]
apparent KD of K4 kissing-loop reporter (input ligand: FMN 200 uM): 386 nM
apparent KD of K4 kissing-loop reporter (input ligand: arginine 13.2 mM): 212 nM
apparent KD of K4 kissing-loop reporter (input ligand: none): 273 nM
apparent KD of K4 kissing-loop reporter [1]: 245 nM
apparent KD of K4 kissing-loop reporter [2]: 179 nM

UCGCUCGAGUAAGGAUAUCAAUAUCAAAGGUCGUAGUGAUGUUAUACCAGGCCAAUUUGGCGGUAGUGAGAAGGUACUAGCAGUU [theeternabot_sameState_KL_FMN_B_38]
apparent KD of K4 kissing-loop reporter (input ligand: FMN 200 uM): 1090 nM
apparent KD of K4 kissing-loop reporter (input ligand: arginine 13.2 mM): 294 nM
apparent KD of K4 kissing-loop reporter (input ligand: none): 688 nM
apparent KD of K4 kissing-loop reporter [1]: 461 nM
apparent KD of K4 kissing-loop reporter [2]: 405 nM

UCUCGGGCCAGUGAUGUUGGCGGCAAGUGGCGAGGACCGGUACGGCCGCCACUCGGCGCAGCAGCGGAGUGAUGUUUCGUGAGUA [Same State Tryptophan A GF 16]
apparent KD of K4 kissing-loop reporter (input ligand: FMN 200 uM): 297 nM
apparent KD of K4 kissing-loop reporter (input ligand: arginine 13.2 mM): 1240 nM
apparent KD of K4 kissing-loop reporter (input ligand: none): 1230 nM
apparent KD of K4 kissing-loop reporter [1]: 387 nM
apparent KD of K4 kissing-loop reporter [2]: 675 nM

UCUGCUGUAUAUGAUACCAGCAGUGAGAGACCAGAAGUAUAGUGAUGUUAUAUGAGAGAAUGCCCUUGGCAGCGUGUGCGGGUGG [SSTheophylB.Z]
apparent KD of K4 kissing-loop reporter (input ligand: FMN 200 uM): 85.4 nM
apparent KD of K4 kissing-loop reporter (input ligand: arginine 13.2 mM): 87.6 nM
apparent KD of K4 kissing-loop reporter (input ligand: none): 67.5 nM
apparent KD of K4 kissing-loop reporter [1]: 84.7 nM
apparent KD of K4 kissing-loop reporter [2]: 61.6 nM

UGACAUUGCUCAGAUACCAGACCUGAGGAUCACCCUGGUGCCAAACGUACAAUAAUAAAUGUCCCUUGGCAGCUGAGCAAUGUCU [TheoBX 14]
apparent KD of K4 kissing-loop reporter (input ligand: FMN 200 uM): 77.8 nM
apparent KD of K4 kissing-loop reporter (input ligand: arginine 13.2 mM): 27.6 nM
apparent KD of K4 kissing-loop reporter (input ligand: none): 44.9 nM
apparent KD of K4 kissing-loop reporter [1]: 139 nM
apparent KD of K4 kissing-loop reporter [2]: 52.4 nM

UGACAUUGCUCAGAUACCAGUCAUGAGGAUCACCCAUGGGCCAAACGUACAAUAAUAAAUGACCCUUGGCAGCUGAGCAAUGUCU [TheoBX 14]
apparent KD of K4 kissing-loop reporter (input ligand: FMN 200 uM): 64.5 nM
apparent KD of K4 kissing-loop reporter (input ligand: arginine 13.2 mM): 36.9 nM
apparent KD of K4 kissing-loop reporter (input ligand: none): 55.4 nM
apparent KD of K4 kissing-loop reporter [1]: 135 nM
apparent KD of K4 kissing-loop reporter [2]: 62.8 nM

UGACUACAAAAGGAAUAAUCCUAGUGAUGUUAGGAUAUGCUGAUAAGCAGAAGGAACGGAGAUCGAAAGAUCUCAUAUGUAGUCU [whbob_Ex_FMNA__2th192]
apparent KD of K4 kissing-loop reporter (input ligand: FMN 200 uM): 141 nM
apparent KD of K4 kissing-loop reporter (input ligand: arginine 13.2 mM): 87.4 nM
apparent KD of K4 kissing-loop reporter (input ligand: none): 82.8 nM
apparent KD of K4 kissing-loop reporter [1]: 98.5 nM
apparent KD of K4 kissing-loop reporter [2]: 87.4 nM

UGACUACAGGAAUAAUAAUCCUAGUGAUGUUAGGAUAUGCUGAUAAGCAGAAGGAACUGAGAUCGAAAGAUCUCAAAAGUAGUCU [FmnAX 28 Mat Inspired #SwitchBubble #StaticStem #K4Early]
apparent KD of K4 kissing-loop reporter (input ligand: FMN 200 uM): 139 nM
apparent KD of K4 kissing-loop reporter (input ligand: arginine 13.2 mM): 89.3 nM
apparent KD of K4 kissing-loop reporter (input ligand: none): 92.9 nM
apparent KD of K4 kissing-loop reporter [1]: 106 nM
apparent KD of K4 kissing-loop reporter [2]: 96.7 nM

UGACUGGACUGAAGGAGCGCUAAAACUCCUAGUGAUGUUGGGAAAUAGAGACAAAGUCUCAAGCAGGUAGGUCGCAGUCUAGUCU [ArgBS 23 #SwitchBubble #StaticStem]
apparent KD of K4 kissing-loop reporter (input ligand: FMN 200 uM): 166 nM
apparent KD of K4 kissing-loop reporter (input ligand: arginine 13.2 mM): 200 nM
apparent KD of K4 kissing-loop reporter (input ligand: none): 163 nM
apparent KD of K4 kissing-loop reporter [1]: 197 nM
apparent KD of K4 kissing-loop reporter [2]: 169 nM

UGACUGGACUGAAGGAGCGGGCGAGACAAAGUCUCGAACUCCUAGUGAUGUUAGGAAAUAACCCAGGUAGGUCGCAGUCUAGUCU [ArgBS 7 #SwitchBubble #StaticStem #DoubleMagnet]
apparent KD of K4 kissing-loop reporter (input ligand: FMN 200 uM): 149 nM
apparent KD of K4 kissing-loop reporter (input ligand: arginine 13.2 mM): 104 nM
apparent KD of K4 kissing-loop reporter (input ligand: none): 128 nM
apparent KD of K4 kissing-loop reporter [1]: 136 nM
apparent KD of K4 kissing-loop reporter [2]: 137 nM

UGACUGGAUGGAAGGAGCGCUAAACUCCUAGUGAUGUUAGGGAUAUGAGGCAAAGCCUUGAGGCAGGUAGGUCGCCAUCUAGUCU [FiskerMod 25 - Jieux - Same State - Arginine B]
apparent KD of K4 kissing-loop reporter (input ligand: FMN 200 uM): 191 nM
apparent KD of K4 kissing-loop reporter (input ligand: arginine 13.2 mM): 117 nM
apparent KD of K4 kissing-loop reporter (input ligand: none): 131 nM
apparent KD of K4 kissing-loop reporter [1]: 141 nM
apparent KD of K4 kissing-loop reporter [2]: 145 nM

UGACUUGCCUGAGGAUAUCUAGGAUAUCCAUAAAAGGAAAUAAUAGUUCAGUGAUGUUGGAGAAGGAGAGAAGGCAGGUAAGUCU [KL-XFMN-B18 #DoubleAptamer #SwitchBubble]
apparent KD of K4 kissing-loop reporter (input ligand: FMN 200 uM): 671 nM
apparent KD of K4 kissing-loop reporter (input ligand: arginine 13.2 mM): 514 nM
apparent KD of K4 kissing-loop reporter (input ligand: none): 493 nM
apparent KD of K4 kissing-loop reporter [1]: 737 nM
apparent KD of K4 kissing-loop reporter [2]: 448 nM

UGAGGAGAAUAUGAUACCAGCAGAGAGAGAGAGGAAGUAUAGUGAUGUUAUAUGAGAUAAUGCCCUUGGCAGCAUAAGAAGAAGG [#19 K4 Theophylline B Same State]
apparent KD of K4 kissing-loop reporter (input ligand: FMN 200 uM): 163 nM
apparent KD of K4 kissing-loop reporter (input ligand: arginine 13.2 mM): 104 nM
apparent KD of K4 kissing-loop reporter (input ligand: none): 111 nM
apparent KD of K4 kissing-loop reporter [1]: 178 nM
apparent KD of K4 kissing-loop reporter [2]: 145 nM

UGAUACCAGACGGCCGCCACUCCUGCAGUCAAAGACUGCUAAAAGGAAAUCGUCCAGUGAUGUUGGAGGACCGGGUCUGGUAUCU [TrypBX 14 #SwitchBubble #Palindromic #StaticStem]
apparent KD of K4 kissing-loop reporter (input ligand: FMN 200 uM): 647 nM
apparent KD of K4 kissing-loop reporter (input ligand: arginine 13.2 mM): 738 nM
apparent KD of K4 kissing-loop reporter (input ligand: none): 1150 nM
apparent KD of K4 kissing-loop reporter [1]: 685 nM
apparent KD of K4 kissing-loop reporter [2]: 372 nM

UGAUACCAGACGGCCGCCACUCCUGCAGUCAAAGACUGCUAAAGGAAAUUCGUCCAGUGAUGUUGGAGGACCGGGUCUGGUAUCU [TrypBX 13 #SwitchBubble #Palindromic #StaticStem]
apparent KD of K4 kissing-loop reporter (input ligand: FMN 200 uM): 1100 nM
apparent KD of K4 kissing-loop reporter (input ligand: arginine 13.2 mM): 753 nM
apparent KD of K4 kissing-loop reporter (input ligand: none): 1070 nM
apparent KD of K4 kissing-loop reporter [1]: 810 nM
apparent KD of K4 kissing-loop reporter [2]: 480 nM

UGAUACCAGACUGAUACCAGCAAGUGAUGUUUGUUGAUCUAUGCAGUCAAAGACUGCUCUUGCCCUUGGCAGCAGUCUGGUAUCU [TheoBX 28 #SwitchBubble #StaticStem]
apparent KD of K4 kissing-loop reporter (input ligand: FMN 200 uM): 762 nM
apparent KD of K4 kissing-loop reporter (input ligand: arginine 13.2 mM): 640 nM
apparent KD of K4 kissing-loop reporter (input ligand: none): 1040 nM
apparent KD of K4 kissing-loop reporter [1]: 409 nM
apparent KD of K4 kissing-loop reporter [2]: 777 nM

UGAUACCAGACUGAUACCAGCUAGUGAUGUUAGCUGAAACAGGAACAGGCAAAGCCUGCUAGCCCUUGGCAGCAGUCUGGUAUCU [TheoBX 11 #SwitchBubble #StaticStem]
apparent KD of K4 kissing-loop reporter (input ligand: FMN 200 uM): 91.5 nM
apparent KD of K4 kissing-loop reporter (input ligand: arginine 13.2 mM): 90.6 nM
apparent KD of K4 kissing-loop reporter (input ligand: none): 96.9 nM
apparent KD of K4 kissing-loop reporter [1]: 152 nM
apparent KD of K4 kissing-loop reporter [2]: 85.3 nM

UGAUAGGACAGAAGGAGCGGAAGUGAUGUUUCCAAAAGGAGAGGUCGACAAAGUCGACCCUUCCAGGUAGGUCGCUGUCCUAUCU [ArgBX 10 #Palindromic #SwitchBubble #StaticStem]
apparent KD of K4 kissing-loop reporter (input ligand: FMN 200 uM): 95.3 nM
apparent KD of K4 kissing-loop reporter (input ligand: arginine 13.2 mM): 83.5 nM
apparent KD of K4 kissing-loop reporter (input ligand: none): 79.1 nM
apparent KD of K4 kissing-loop reporter [1]: 105 nM
apparent KD of K4 kissing-loop reporter [2]: 86.7 nM

UGAUUGCCAGUGAUGUUGGCAGGGUCUGAAGGAGCGCGUGAAAACGCAGGUAGGUCGCAGUAUGGUGCCAAUUGAUCGAAAGAUC [KL-XArg-A3]
apparent KD of K4 kissing-loop reporter (input ligand: FMN 200 uM): 226 nM
apparent KD of K4 kissing-loop reporter (input ligand: arginine 13.2 mM): 186 nM
apparent KD of K4 kissing-loop reporter (input ligand: none): 223 nM
apparent KD of K4 kissing-loop reporter [1]: 210 nM
apparent KD of K4 kissing-loop reporter [2]: 170 nM
